Test [1] has as its target T1, human IL-5 protein (purchased from Beijing Yiqiao Shenzhou) (human, UniProt P05113 20-134). Put plainly: cell-based or functional assay.
The target in test [2] is T2, human IL-5-hFc (human, UniProt P05113 20-134).
T2 construct: not shown: Fc segment of human IgG1
The test can be described thus: competition ELISA: IL-5-hFc coated, biotinylated IL-5RA-ECD-hFc as competitor. As to the method:
(§1) After incubation for a period of time, the plate was washed and Streptavidin-HRP was added finally for color development detection.
Background: ELISA stands for enzyme-linked immunosorbent assay.

In test [3] the target is T1, human IL-5 protein (purchased from …). The test can be described thus: SPR Biacore T200, antibody captured on Protein A/G, IL-5 as analyte. An excerpt:
The specific experimental method was as follows: A CM5 sensor chip (GE healthcare) was activated with a Amine Coupling Kit (GE healthcare) and the Protein A/G fusion protein (Thermo Pierce) was immobilized on the chip with an lable amount of 2000 RU. FC3 (Flow cell 3) was a reference channel, and FC4 (Flow cell 4) was a sample channel.
(In general: Surface plasmon resonance follows binding to a sensor surface in real time, without labels.)

The target of another test is T3, mouse IL-5 with His-tag (mouse, UniProt P04401 21-133).
T3 construct: Expressed transiently in HEK293E and captured from the supernatant by a murine anti-His antibody; not shown: His-tag
T3 sequence (looked up): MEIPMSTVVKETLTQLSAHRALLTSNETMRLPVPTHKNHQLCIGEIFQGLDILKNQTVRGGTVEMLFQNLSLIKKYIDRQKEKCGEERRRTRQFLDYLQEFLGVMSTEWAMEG
Put plainly: ELISA, His-tagged IL-5 captured by anti-His antibody; mouse. An excerpt:
(§2) IL-5 genes of rat, mouse, guinea pig and rabbit were synthesized and constructed into the pTT5 transient vector, respectively (All the sequences of the above genes are from http://www.uniprot.org, the mouse number is P04401, the rat number is Q08125, the guinea pig number is O08987, and the rabbit number is G1SL79), and then transiently expressed in HEK293E.

For test [4], the target named is T4, guinea pig IL-5 with His-tag (guinea pig, UniProt O08987 20-135).
T4 construct: Expressed transiently in HEK293E and captured from the supernatant by a murine anti-His antibody; not shown: His-tag
T4 sequence (looked up): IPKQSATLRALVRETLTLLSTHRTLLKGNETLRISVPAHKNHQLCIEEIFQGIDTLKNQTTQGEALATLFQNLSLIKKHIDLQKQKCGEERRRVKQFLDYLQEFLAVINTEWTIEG
The test can be described thus: ELISA, His-tagged IL-5 captured by anti-His antibody; guinea pig.
Source text: as §2

Another test concerns the target T5, rat IL-5 with His-tag (rat, UniProt Q08125 20-132).
T5 construct: Expressed transiently in HEK293E and captured from the supernatant by a murine anti-His antibody; not shown: His-tag
T5 sequence (looked up): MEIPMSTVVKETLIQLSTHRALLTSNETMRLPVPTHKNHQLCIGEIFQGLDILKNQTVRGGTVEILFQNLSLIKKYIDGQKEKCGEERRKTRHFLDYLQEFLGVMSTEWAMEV
The test can be described thus: ELISA, His-tagged IL-5 captured by anti-His antibody; rat.
Source text: as §2

The target of test [5] is T6, human IL-5-His-tag antigen (human, UniProt P05113 20-134).
T6 construct: Made in HEK293
Put plainly: ELISA, His-tagged IL-5 captured by anti-His antibody; human.

The target in test [6] is T7, IL-5 mutant 91R to Alanine, with His-tag (human, UniProt P05113 20-134).
T7 construct: Expressed transiently in HEK293E; used from the supernatant, captured by a murine anti-His antibody; not shown: His-tag
The test can be described thus: capture ELISA: His-tagged IL-5 from HEK293E supernatant captured with murine anti-His antibody, detected with Goat-anti-Human-Fc-Specific-HRP; mean of four wells.

The target in test [7] is T8, IL-5 mutant 90R to Alanine, with His-tag (human, UniProt P05113 20-134).
T8 construct: Expressed transiently in HEK293E; used from the supernatant, captured by a murine anti-His antibody; not shown: His-tag
The description is as above.

Test [8] deals with T9, IL-5 mutant 86C to Alanine, with His-tag (human, UniProt P05113 20-134).
T9 construct: Expressed transiently in HEK293E; used from the supernatant, captured by a murine anti-His antibody; not shown: His-tag
Described as above.

The target of test [9] is T10, IL-5 mutant 104L to Alanine, with His-tag (human, UniProt P05113 20-134).
T10 construct: Expressed transiently in HEK293E; used from the supernatant, captured by a murine anti-His antibody; not shown: His-tag
Described as above.

For test [10], the target named is T11, IL-5 mutant 96F to Alanine, with His-tag (human, UniProt P05113 20-134).
T11 construct: Expressed transiently in HEK293E; used from the supernatant, captured by a murine anti-His antibody; not shown: His-tag
The test is described as above.

A further test concerns the target T12, rabbit IL-5 with His-tag (rabbit, UniProt G1SL79 20-134).
T12 construct: Expressed transiently in HEK293E and captured from the supernatant by a murine anti-His antibody
T12 sequence: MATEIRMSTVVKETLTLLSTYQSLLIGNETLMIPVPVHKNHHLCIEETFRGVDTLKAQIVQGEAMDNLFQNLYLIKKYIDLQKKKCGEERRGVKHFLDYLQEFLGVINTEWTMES
Put plainly: ELISA, His-tagged IL-5 captured by anti-His antibody.
Source text: as §2

Test [11] addresses T2, human IL-5-hFc. The test can be described thus: blocking ELISA: plate coated with IL-5-hFc, antibody dilutions mixed with biotinylated IL-5RA-ECD-hFc (the blocked ligand), Streptavidin-HRP, OD450. As to the method: as §1

B1: chimeric antibody No. 4-6 (4-6-Chimeric) (antibody, human IgG1, V domains shown)
VH: QVQLQQSGAELVRPGASVKISCKAFGYTFTNHHINWVQQRPGQGLDWIGYINPYNDYSRYNQKFKGKATLTVDKSSSTAYMELSGLTSEDSAVYYCARDYGNFWYFDVWGAGTTVTVSS
VL: DIKMTQSPSSMYASLGERVTITCKASQDINSYLSWIQQKPGKSPKTLIHRADRLIDGVPSRFSGSGSGQDFSLTISSLEYEDMGIYYCLQYDDFPYTFGGGTKLEIK
As usually defined, the IC50 is the point on the concentration scale where inhibition reaches its midpoint. By Kd is commonly meant the concentration at which binding is half-saturated. A lower Kd goes with a tighter complex. For orientation: koff means a measure of how fast the partners let go of each other. One may read the kon as a measure of how fast the partners come together. Lower therefore signals slower complex formation. With B1, the “IC50 for inhibiting IL-5-induced TF-1 cell proliferation (4-6-Chimeric)” value in test [1] is 0.0289 mg/L. For the same molecule, the IC50 with human IL-5-hFc [2] was found to be 0.98 mg/L. In test [3], this molecule came in with an equilibrium dissociation constant (Kd) of 0.013 nM, a koff of 0.000196 s⁻¹ and a kon of 1.51e+07 M⁻¹ s⁻¹.

B2: hu39D10 (antibody, V domains shown)
VH: EVQLVESGGGLVQPGGSLRLSCAVSGLSLTSNSVNWIRQAPGKGLEWVGLIWSNGDTDYNSAIKSRFTISRDTSKSTVYLQMNSLRAEDTAVYYCAREYYGYFDYWGQGTLVTVSS
VL: DIQMTQSPSSLSASVGDRVTITCLASEGISSYLAWYQQKPGKAPKLLIYGANSLQTGVPSRFSGSGSATDYTLTISSLQPEDFATYYCQQSYKFPNTFGQGTKVEVKR
The term EC50 denotes the concentration needed to bring the measured effect to its halfway point. On to B2, for which the “IC50 for inhibiting IL-5-induced TF-1 cell proliferation (hu39D10)” value in test [1] was 0.0476 mg/L. Further, the concentration for a half-maximal effect (EC50) with mouse IL-5 with His-tag is 0.0618 mg/L; in [4], 0.0531 mg/L; in the test with rat IL-5 with His-tag, 0.132 mg/L; in test [5], 0.078 mg/L. The OD450 turned out to be 0.171 in test [6]; 0.499 in test [7]; 0.13 in test [8]; 0.11 in test [9]; 0.456 in [10]. Further, the Kd in [3] was 0.0136 nM. Also, the koff in test [3] is 0.000156 s⁻¹. The molecule further yielded an on-rate (kon) in [3] of 1.15e+07 M⁻¹ s⁻¹.

B3: humanized antibody No. 4-6 (4-6-Humanized) (antibody, human IgG1, kappa, V domains shown)
VH: QVQLVQSGAEVKKPGASVKVSCKASGYTFTNHHINWVRQAPGQGLEWIGYINPYNDYSRYNQKFKGRATLTVDKSTSTAYMELSSLRSEDTAVYYCARDYGNFWYFDVWGQGTLVTVSS
VL: DIQMTQSPSSLSASVGDRVTITCKASQDINSYLSWIQQKPGKAPKTLIHRADRLIDGVPSRFSGSGSGQDFTLTISSLQPEDFATYYCLQYDDFPYTFGQGTKVEIKR
notes: Human IgG1; Made in HEK293; also called 4-6-Humanized (293); 4-6-Humanized (CHO)
As for B3, the 50% effective concentration (EC50) with mouse IL-5 with His-tag came to 0.0521 mg/L; in test [4], 0.0558 mg/L; in the test with rat IL-5 with His-tag, 2.13 mg/L. Moreover, the binding result in the test with rabbit IL-5 with His-tag is listed as “no binding”.

B4: control antibody 4-4-Humanized (antibody, human IgG1, V domains shown)
VH: QVQLVQSGAEVKKPGASVKVSCKASGYTFTDYYINWLRQAPGQGLEWIGWIYPGSGNTKYSEKFKDRATLTVDTSTSTVYMELSSLRSEDTAVYVCVRDGYYWYFDVWGQGTLVTVSS
VL: DIVMTQSPDSLAVSLGERATINCKSSQSLLNNYNQKNYLAWYQQKPGQPPKLLVYFTSTRESGVPDRFSGSGSGTDFTLTISSLQAEDVAVYFCQQHYSPPFTFGQGTKVEIK
On to B4, for which the “IC50 (read off the curve)” value with human IL-5-hFc [11] was approximately 4 mg/L.

For the origin of these results see patent US20210171621A1 (SUNSHINE GUOJIAN PHARMACEUTICAL SHANGHAI, published 2021).
